This is an account of results in patent US20240200081A1, “NUCLEIC ACID MOLECULE CONJUGATE HAVING PROLONGED IN VIVO HALF-LIFE” (APTACURE THERAPEUTICS LIMITED, published 2024).

Data set [1] concerns the target sclerostin (Homo sapiens, UniProt Q9BQB4 SEQ:1-190). Nature of the data set: ELONA; PBS, 1 mM MgCl2, RT; p158 prints 3' end as CT GCCC, APC001 as U G C C. Conditions: tags: His6 (SELEX protein); recombinant human sclerostin. The protocol:
An Enzyme-linked OligoNucleotide Assay (ELONA) was performed to determine the binding affinity of the aptamer candidates to sclerostin (Drolet, Moon-McDermott et al. 1996). Similarly, an Enzyme-linked ImmunoSorbent Assay (ELISA) was performed to determine the binding affinity of anti-sclerostin antibody to human sclerostin (Engvall and Perlmann 1971). 160 ng purified recombinant human sclerostin was coated to 96-well microtiter plate in 100 μl PBS by incubating at 4° C. overnight. The plate was then blocked with blocking buffer (PBS, 0.1% Tween 20 and 1% BSA) for 1 h at room temperature and washed with SELEX B&W buffer (PBS, 1mM MgCl2, 0.1% Tween 20 and 0.1% BSA) for 4 times. The aptamer candidates were denatured at 95° C. for 10 min and rapidly cooled on ice for 10 min before use. Appropriate concentrations of biotinylated aptamers/antibody were added into each well, then added SELEX B&W buffer to 100 μl and incubated for 45 min at room temperature with continuous gentle shaking. After binding, the plate was washed with SELEX B&W buffer for 4 times to remove non-specific and very weak binding, followed by washing with PBST+0.1% BSA for 4 times. […] Absorbance at 450 nm was measured with microplate reader (Stoltenburg, Krafcikova et al. 2016). Data was analyzed with Origin software (OriginLab, Northampton, MA). […]

Data set [2] concerns the target sclerostin (UniProt Q9BQB4 Q9BQB4:24-213). Nature of the data set: cell_activity; inhibition potency, TOP-Wnt luciferase reporter. The settings on record: tags: expressed from transfected sclerostin plasmid in MC3T3-E1 cells. The protocol: To study the inhibition potency of aptamers against sclerostin's antagonistic effect on Wnt signaling, a TOP-Wnt induced luciferase reporter assay was used in osteoblast MC3T3-E1 cells (van Bezooijen, Svensson et al. 2007, Shum, Chan et al. 2011).
MC3T3-E1 cells were seeded in 24-well plates and cells were transfected with corresponding reporter plasmid (100 ng), Wnt3a plasmid (800 ng) and sclerostin plasmid (800 ng) as necessary using FuGENE HD transfection reagent (Promega) in the following day. 10 hours after transfection, culture medium was changed to fresh medium and cells were treated with aptamers/antibody. 24 hours after treatment, each well of cells was lysed with 100 μl passive lysis buffer and 20 μl was taken for analysis. The Luciferase Assay Reagent II and Stop & Glo Reagent were prepared and added automatically by SpectraMax i3x Multi-Mode Detection Platform (Molecular Device) according to the manufacturer's protocol (Promega) and data was analyzed accordingly (Grentzmann, Ingram et al. 1998, McNabb, Reed et al. 2005).
For orientation: In a reporter assay the amount or activity of a reporter protein is the signal.

sclerostin (Homo sapiens, UniProt Q9BQB4 SEQ:1-190), sequence (Q9BQB4 24-213): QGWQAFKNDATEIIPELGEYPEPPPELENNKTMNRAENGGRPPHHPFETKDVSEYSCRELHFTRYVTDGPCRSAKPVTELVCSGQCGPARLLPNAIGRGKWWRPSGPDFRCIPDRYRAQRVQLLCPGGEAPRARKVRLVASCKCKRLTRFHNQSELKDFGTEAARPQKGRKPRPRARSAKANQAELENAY
sclerostin (UniProt Q9BQB4 Q9BQB4:24-213), sequence (Q9BQB4 24-213, one chain of several): as the sequence (Q9BQB4 24-213) above

For CGGGGTGTGGGTTCGTCGTTAGCTTGATTTGGCAGCTGCC (ssDNA, 2'-OMe on first 4 (CGGG) and last 4 nucleotides; 3' idT) [modified aptscl 56], the Kd (in general, the equilibrium constant for the complex coming apart) with sclerostin [1] came to 6.55 nM. Also, in the data set with sclerostin [2], a half-maximal response (EC50) required 14 µg/mL.
